What was measured:
Assay in all cases: cell-based or functional assay
[1] = molecular target: human GFRAL and human RET on HEK293 cells (human) (UniProt Q6UXV0)
[2] = molecular target: IL-2 receptor-dimer pair of the PathHunter IL-2 BioAssay cells
[3] = molecular target: human CNTF receptor (CNTFR) on IMR-32 cells (human) (UniProt P26992)
[4] = molecular target: human ErbB4 receptor (NCBI Ref. Seq. No. NP_001036064.1) (human) (UniProt Q15303)

human CNTF receptor (CNTFR) on IMR-32 cells (human), sequence (P26992 23-342): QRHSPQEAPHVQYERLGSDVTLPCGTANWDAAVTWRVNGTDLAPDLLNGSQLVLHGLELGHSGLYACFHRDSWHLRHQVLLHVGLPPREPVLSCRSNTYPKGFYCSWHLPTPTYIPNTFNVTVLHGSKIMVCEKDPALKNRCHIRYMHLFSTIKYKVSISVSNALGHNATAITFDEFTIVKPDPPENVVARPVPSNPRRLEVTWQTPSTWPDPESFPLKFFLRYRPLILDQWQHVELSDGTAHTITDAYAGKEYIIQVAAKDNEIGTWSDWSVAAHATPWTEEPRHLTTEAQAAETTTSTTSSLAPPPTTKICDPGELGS

For “Human GDF15 (from UniProt Q99988 197-308) (ligand)”, the hGFRAL/RET EC50 (pM), p-ERK1/2 AlphaLISA [1] was 2.85 pM.

With “Human IL-2 (reference standard of the PathHunter IL-2 BioAssay Kit) (from UniProt P60568 21-153) (ligand)” the EC50 (nM), PathHunter IL-2 BioAssay [2] was 0.13 nM.

Substance “human CNTF (R&D Systems; Cat #257-NT-010) (from UniProt P26441 2-200) (ligand)” has a hCNTFR EC50 pM GeoMean (pSTAT3 in IMR-32 cells) [3] of 3.5 pM.

“rhNRG-1 (eurofins cat #92-1091) (from UniProt Q02297 177-241) (ligand)” was tested, and the EC50 (ng/mL), PathHunter ErbB4/ErbB4 dimerization assay [4] was 16.5 ng/mL.
